Reference: US20250388669A1 (published 2025)

Target: T1, B7H3 (human, UniProt Q5ZPR3 29-466, limits assumed)
T1 construct: Tumor associated antigen; also called huB7H3
T1 sequence (looked up): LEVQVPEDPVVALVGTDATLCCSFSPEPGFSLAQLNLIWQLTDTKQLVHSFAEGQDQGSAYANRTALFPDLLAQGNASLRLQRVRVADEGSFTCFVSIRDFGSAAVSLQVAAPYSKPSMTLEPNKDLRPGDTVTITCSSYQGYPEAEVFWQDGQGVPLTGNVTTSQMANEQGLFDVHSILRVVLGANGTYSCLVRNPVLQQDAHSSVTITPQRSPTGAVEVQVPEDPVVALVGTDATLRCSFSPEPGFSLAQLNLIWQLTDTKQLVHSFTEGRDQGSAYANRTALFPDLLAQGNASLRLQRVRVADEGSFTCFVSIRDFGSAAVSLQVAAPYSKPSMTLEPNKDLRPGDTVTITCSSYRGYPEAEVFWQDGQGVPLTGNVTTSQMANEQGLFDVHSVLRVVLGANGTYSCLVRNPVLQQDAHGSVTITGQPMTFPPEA
Experiment: FCM or ELISA

- binding result: binds
B1: Ly2428 (bispecific antibody)
chain 1: QVQLVQSGAEVKKPGASVKVSCKASGYTFTSYVMHWVRQKPGQGLEWIGYINPYNEGTESTDKFKGRATMTSDKSTSTVYMELSSLRSEDTAVYYCASIYYGYEGTYFGVWGQGTLVTVSSASTKGPSVFPLAPSSKSTSGGTAALGCLVKDYFPEPVTVSWNSGALTSGVHTFPAVLQSSGLYSLSSVVTVPSSSLGTQTYICNVNHKPSNTKVDKKVEPKSCGGGGSGGGGSGGGGSGGGGSEVQLVESGGGLVQPGGSLRLSCAASGFTFTNYGLHWVRQAPGKGLEWVSSISPSGGVTYYRDSVKGRFTISRDNSKNTLYLQMNSLRAEDTAVYYCAKPFLGWGGANWIAHWGQGTLVTVSSGGGGSDKTHTCPPCPAPEAAGPSVFLFPPKPKDTLMISRTPEVTCVVVDVSHEDPEVKFNWYVDGVEVHNAKTKPREEQYNSTYRVVSVLTVLHQDWLNGKEYKCKVSNKALPAPIEKTISKAKGQPREPQVYTLPPSREEMTKNQVSLWCLVKGFYPSDIAVEWESNGQPENNYKTTPPVLDSDGSFFLYSKLTVDKSRWQQGNVFSCSVMHEALHNHYTQKSLSLSPG
chain 2: QVQLVQSGAEVKKPGASVKVSCKASGYTFTSYVMHWVRQKPGQGLEWIGYINPYNEGTESTDKFKGRATMTSDKSTSTVYMELSSLRSEDTAVYYCASIYYGYEGTYFGVWGQGTLVTVSSASTKGPSVFPLAPSSKSTSGGTAALGCLVKDYFPEPVTVSWNSGALTSGVHTFPAVLQSSGLYSLSSVVTVPSSSLGTQTYICNVNHKPSNTKVDKKVEPKSCGGGGSGGGGSGGGGSGGGGSDIQMTQSPSSLSASVGDRVTITCLASEDISNDLAWYQQKPGKAPKLLIYFVDRLLDGVPSRFSGSGSGTDFTLTISSLQPEDFATYYCQQSYKYPPTFGQGTKLEIKGGGGSDKTHTCPPCPAPEAAGPSVFLFPPKPKDTLMISRTPEVTCVVVDVSHEDPEVKFNWYVDGVEVHNAKTKPREEQYNSTYRVVSVLTVLHQDWLNGKEYKCKVSNKALPAPIEKTISKAKGQPREPQVYTLPPSREEMTKNQVSLSCAVKGFYPSDIAVEWESNGQPENNYKTTPPVLDSDGSFFLVSKLTVDKSRWQQGNVFSCSVMHEALHNRFTQKSLSLSPG
light: EIVLTQSPATLSLSPGERATLSCRASSSVSYMHWYQQKPGQAPRPWIYATSNLASGIPARFSGSRSGTDYTLTISSLEPEDFAVYYCQQWSSNTLTFGGGTKVEIKRTVAAPSVFIFPPSDEQLKSGTASVVCLLNNFYPREAKVQWKVDNALQSGNSQESVTEQDSKDSTYSLSSTLTLSKADYEKHKVYACEVTHQGLSSPVTKSFNRGEC
notes: B7H3/CD40: two B7H3 Fabs, central CD40 Fv (TM559)
